According to US20260226131A1 (SHANGHAI INSTITUTE OF MATERIA MEDICA CHINESE ACADEMY OF …, published 2026):
Residue numbers refer to the chain shown, from its start. In names and notes the source's numbering stands.

Columns and labels:
[1] = target: IGF-1R-His tag (Sino Biological), human insulin-like growth factor 1 receptor (human) (UniProt P08069); test: BLI (Octet), IGF-1R-His captured on Ni-NTA probe, 1:1 fit
[2] = target: T1, human insulin receptor extracellular domain protein (hIRB-ECD, Sino Biological Inc.) (human, UniProt P06213 28-956); test: ELISA, coated hIRB-ECD, anti-human IgG HRP detection
T1 construct: extracellular domain; Bought protein coated on the ELISA plate

[3] = target: T2, IGF-1R-His tag (Sino Biological), human insulin-like growth factor 1 receptor (human, UniProt P08069 31-932, limits assumed); test: BLI (Octet), IGF-1R-His captured on Ni-NTA probe, 1:1 fit
T2 construct: Bought recombinant protein captured on Ni-NTA probes; also called His-tagged IGF-1R protein; not shown: His tag

[4] = target: T3, human insulin receptor isoform A (hIRA), membranes of CHO cells overexpressing hIRA (human, UniProt P06213-2 28-1370); test: competition with [125I]-insulin, CHO-hIRA membranes (SPA)
T3 construct: whole, on cells; The assay used cell membrane preparations

[5] = target: T4, human insulin receptor isoform B (hIRB), membranes of CHO cells overexpressing hIRB (human, UniProt P06213 28-1382); test: competition with [125I]-insulin, CHO-hIRB membranes (SPA)
T4 construct: whole, on cells; The assay used cell membrane preparations

glargine insulin (Lantus, Sanofi) (ligand)
Kd [1]: 764 nM
koff [1]: 0.0192 s⁻¹
kon [1]: 25100 M⁻¹ s⁻¹

B1: Insulin-Fc fusion protein of Example 1 (B27E+A3-A+A21G) (Fc fusion)
chain: FVNQHLCGSHLVEALYLVCGERGFFYEPKTGGVGGGGIAEQCCTSICSLYQLENYCGGGGGSGGGGSGGGGSGGGGSERKSSVESPPSPAPPVAGPSVFLFPPKPKDTLMISRTPEVTCVVVDVSQEDPEVQFNWYVDGVEVHNAKTKPREEQFNSTFRVVSVLTVLHQDWLNGKEYKCKVSNKGLPSSIEKTISKTKGQPREPQVYTLPPSREEMTKNQVSLTCLVKGFYPSDIAVEWESNGQPENNYKTTPPMLDSDGSFFLYSKLTVDKSRWQQGNVFSCSVMHEALHNHYTQKSLSLSLG
EC50 [2]: 160 nM
Kd [3]: 6490 nM
koff [3]: 0.00336 s⁻¹
kon [3]: 518 M⁻¹ s⁻¹
IC50 [4]: 102 nM
Maximum Receptor Binding Activity (%) Relative to RHI [4]: 78.7%
IC50 [5]: 509 nM
Maximum Receptor Binding Activity (%) Relative to RHI [5]: 74.3%

B2: Insulin-Fc fusion protein of Example 5 (B5-A+A21G) (Fc fusion)
chain: B1 chain with H5A, E27T, A39V
EC50 [2]: 160 nM

B3: Insulin-Fc fusion protein of Example 6 (B16-A+A3-A+A21G) (Fc fusion)
chain: B1 chain with Y16A, E27T
EC50 [2]: 445 nM

B4: Insulin-Fc fusion protein of Example 7 (B25-T+B27-E A3-A+A21G) (Fc fusion)
chain: B1 chain with F25T
EC50 [2]: 699 nM

B5: Insulin-Fc fusion protein of Example 8 (des B27-30+A3-A+A21G) (Fc fusion)
chain: FVNQHLCGSHLVEALYLVCGERGFFYGGVGGGGIAEQCCTSICSLYQLENYCGGGGGSGGGGSGGGGSGGGGSERKSSVESPPSPAPPVAGPSVFLFPPKPKDTLMISRTPEVTCVVVDVSQEDPEVQFNWYVDGVEVHNAKTKPREEQFNSTFRVVSVLTVLHQDWLNGKEYKCKVSNKGLPSSIEKTISKTKGQPREPQVYTLPPSREEMTKNQVSLTCLVKGFYPSDIAVEWESNGQPENNYKTTPPMLDSDGSFFLYSKLTVDKSRWQQGNVFSCSVMHEALHNHYTQKSLSLSLG
EC50 [2]: 314 nM
